Assay results taken from PMC6370846.
Values belong to the substance of their own block, whether it stands above or below them.

Key:
[1] = dual-color fluorescence cross-correlation spectroscopy (FCCS); self-aggregation: Cy5-labelled and Oregon green 488-labelled copies of the same construct mixed in equal volumes (125 µL each) at 536 µM monomer-equivalent, incubated at 310 K with shaking at 250 rpm for up to 24 h; aliquots …; conditions: other: dual-color fluorescence cross-correlation spectroscopy (FCCS)
[2] = biological target: α-synuclein tandem tetramer (αS-4), C-terminally Cys-tagged, dye-labelled; assay: dual-color fluorescence cross-correlation spectroscopy (FCCS); self-aggregation: Cy5-labelled and Oregon green 488-labelled copies of the same construct mixed in equal volumes (125 µL each) at 536 µM monomer-equivalent, incubated at 310 K with shaking at 250 rpm for up to 24 h; aliquots diluted in PBS to ~134 pM and measured at 298 K; fractions nrg/nr and nrg/ng fitted to single-exponential growth
[3] = biological target: α-synuclein tandem octamer (αS-8), C-terminally Cys-tagged, dye-labelled; assay: as above
[4] = biological target: α-synuclein tandem dimer (αS-2), C-terminally Cys-tagged, dye-labelled; assay: dual-color fluorescence cross-correlation spectroscopy (FCCS); co-aggregation: Cy5-labelled tandem oligomer mixed with Oregon green 488-labelled monomer, equal volumes (125 µL each) at 536 µM monomer-equivalent, 310 K, shaking at 250 rpm, up to 24 h; aliquots diluted in PBS to ~134 pM and measured at 298 K; single-exponential fits
[5] = biological target: α-synuclein tandem octamer (αS-8), C-terminally Cys-tagged, dye-labelled; assay: as above
[6] = biological target: α-synuclein tandem tetramer (αS-4), C-terminally Cys-tagged, dye-labelled; assay: as above
[7] = biological target: α-synuclein tandem dimer (αS-2), C-terminally Cys-tagged, dye-labelled; assay: dual-color fluorescence cross-correlation spectroscopy (FCCS); co-aggregation with swapped fluorophores: Cy5-labelled monomer mixed with Oregon green 488-labelled tandem oligomer, equal volumes (125 µL each) at 536 µM monomer-equivalent, 310 K, shaking at 250 rpm, up to 24 h; aliquots diluted in PBS to ~134 pM and measured at 298 K; single-exponential fits
[8] = biological target: α-synuclein tandem octamer (αS-8), C-terminally Cys-tagged, dye-labelled; assay: as above
[9] = biological target: α-synuclein tandem tetramer (αS-4), C-terminally Cys-tagged, dye-labelled; assay: as above
[10] = biological target: α-synuclein monomer (αS-1), C-terminally Cys-tagged, dye-labelled; assay: dual-color fluorescence cross-correlation spectroscopy (FCCS); self-aggregation: Cy5-labelled and Oregon green 488-labelled copies of the same construct mixed in equal volumes (125 µL each) at 536 µM monomer-equivalent, incubated at 310 K with shaking at 250 rpm for up to 24 h; aliquots diluted in PBS to ~134 pM and measured at 298 K; fractions nrg/nr and nrg/ng fitted to single-exponential growth
[11] = biological target: α-synuclein tandem dimer (αS-2), C-terminally Cys-tagged, dye-labelled; assay: as above

Substance: α-synuclein monomer (αS-1), C-terminally Cys-tagged, dye-labelled
percent incorporated into dual-color aggregates after 24 hr [1]: only ~5% of αS-1 and αS-2
|A| of nrg/ng (extent, percent of Oregon green-labelled species in dual-color aggregates) [1]: 8%
|A| of nrg/nr (extent, percent of Cy5-labelled species in dual-color aggregates) [1]: 6%

Substance: α-synuclein tandem tetramer (αS-4), C-terminally Cys-tagged, dye-labelled
percent incorporated into dual-color aggregates after 24 hr [1]: ~15% of Cy5-labelled αS-4
|A| of nrg/ng (extent, percent of Oregon green-labelled species in dual-color aggregates) [1]: 17%
|A| of nrg/nr (extent, percent of Cy5-labelled species in dual-color aggregates) [1]: 14%
k of nrg/ng (rate of exponential growth of aggregation) [2]: 0.18 h⁻¹
k of nrg/nr (rate of exponential growth of aggregation) [2]: 0.17 h⁻¹

Substance: α-synuclein tandem octamer (αS-8), C-terminally Cys-tagged, dye-labelled
percent incorporated into dual-color aggregates after 24 hr [1]: ~35% of Cy5-labelled αS-8
|A| of nrg/ng (extent, percent of Oregon green-labelled species in dual-color aggregates) [1]: 26%
|A| of nrg/nr (extent, percent of Cy5-labelled species in dual-color aggregates) [1]: 29%
k of nrg/ng (rate of exponential growth of aggregation) [3]: 0.06 h⁻¹
k of nrg/nr (rate of exponential growth of aggregation) [3]: 0.15 h⁻¹

Further lines, with some results ahead:

k of nrg/ng (rate of exponential growth of co-aggregation) [4]: 0.4 h⁻¹
k of nrg/nr (rate of exponential growth of co-aggregation) [4]: 0.11 h⁻¹
|A| of nrg/ng (extent, percent of Oregon green-labelled αS-1 in dual-color co-aggregates) [4]: 1.7%
|A| of nrg/nr (extent, percent of Cy5-labelled αS-2 in dual-color co-aggregates) [4]: 4%
k of nrg/ng (rate of exponential growth of co-aggregation) [5]: 0.4 h⁻¹
k of nrg/nr (rate of exponential growth of co-aggregation) [5]: 0.12 h⁻¹
|A| of nrg/ng (extent, percent of Oregon green-labelled αS-1 in dual-color co-aggregates) [5]: 1%
|A| of nrg/nr (extent, percent of Cy5-labelled αS-8 in dual-color co-aggregates) [5]: 40%
k of nrg/ng (rate of exponential growth of co-aggregation) [6]: 0.8 h⁻¹
k of nrg/nr (rate of exponential growth of co-aggregation) [6]: 0.23 h⁻¹
|A| of nrg/ng (extent, percent of Oregon green-labelled αS-1 in dual-color co-aggregates) [6]: 2%
|A| of nrg/nr (extent, percent of Cy5-labelled αS-4 in dual-color co-aggregates) [6]: 11%
k of nrg/ng (rate of exponential growth of co-aggregation) [7]: 0.2 h⁻¹
k of nrg/nr (rate of exponential growth of co-aggregation) [7]: 0.2 h⁻¹
|A| of nrg/ng (extent, percent of Oregon green-labelled αS-2 in dual-color co-aggregates) [7]: 4%
|A| of nrg/nr (extent, percent of Cy5-labelled αS-1 in dual-color co-aggregates) [7]: 5%
k of nrg/ng (rate of exponential growth of co-aggregation) [8]: 0.2 h⁻¹
k of nrg/nr (rate of exponential growth of co-aggregation) [8]: 0.05 h⁻¹
|A| of nrg/ng (extent, percent of Oregon green-labelled αS-8 in dual-color co-aggregates) [8]: 11%
|A| of nrg/nr (extent, percent of Cy5-labelled αS-1 in dual-color co-aggregates) [8]: 4%
k of nrg/ng (rate of exponential growth of co-aggregation) [9]: 0.5 h⁻¹
k of nrg/nr (rate of exponential growth of co-aggregation) [9]: 2 h⁻¹
|A| of nrg/ng (extent, percent of Oregon green-labelled αS-4 in dual-color co-aggregates) [9]: 20%
|A| of nrg/nr (extent, percent of Cy5-labelled αS-1 in dual-color co-aggregates) [9]: 1%
k of nrg/ng (rate of exponential growth of aggregation) [10]: 0.035 h⁻¹
k of nrg/nr (rate of exponential growth of aggregation) [10]: 0.043 h⁻¹
Substance: α-synuclein monomer (αS-1), C-terminally Cys-tagged, dye-labelled (natural protein)

k of nrg/ng (rate of exponential growth of aggregation) [11]: 0.2 h⁻¹
k of nrg/nr (rate of exponential growth of aggregation) [11]: 0.23 h⁻¹
Substance: α-synuclein tandem dimer (αS-2), C-terminally Cys-tagged, dye-labelled
percent incorporated into dual-color aggregates after 24 hr [1]: only ~5% of αS-1 and αS-2
|A| of nrg/ng (extent, percent of Oregon green-labelled species in dual-color aggregates) [1]: 4%
|A| of nrg/nr (extent, percent of Cy5-labelled species in dual-color aggregates) [1]: 5%
